This note sets out measurements from patent publication US20180346592A1.

Substitutions are numbered along the chain they refer to.

B1: clone GN328 (scFv, V domains shown)
VH: EVQLVESGGGLVQPGGSLRVSCAASGFTFSTAWMDWVRQAPGKGLEWVANINPDGSEKHYVDSVKGRFTVSRDNAKNSVYLHMNNLRAEDTAVYYCSKALDYWGQGTTVTVSS
VL: DIQMTQSPSTLSASVGDRVTITCRASQNINTWLAWYQQKPGKAPEVLIYEASSLESGVPPRFSGSGSGTEFTLTISSLQPDDSATYYCQQYNTYSPTFGQGTKLEIKR
B2: clone GX263 (scFv, V domains shown)
VH: EVQLVESGGGLVKPGGSLRLSCAASGFTFSSYSMNWVRQAPGKGLEWVSSISSSSSYIYYADSVKGRFTISRDNAKNSLYLQMNSLRAEDTAVYYCARVTPYYYYGMDVWGQGTTVTVSS
VL: QSVVTQPPSVSAAPGQKVTISCSGSSSNIGNNYVSWYQQLPGTAPKLLIYDSNKRPPGIPDRFSGSKSGTSATLGITGLQTGDEADYYCGAWDSSLSAVVFGGGTKLTVLG
B3: clone GX184 (scFv, V domains shown)
VH: QLQLQESGPGLVKPSETLSLTCAVSGGSISSSNNYWGWIRQPPGKGLEWIGSIFYSGSTYYNPSLKSRVTISVDTSKNQFSLKLSSVTAADTAVYYCARLPTGTPGFYFDYWGQGTLVTVSS
VL: SYELTQPPSVSKGLRQTATLTCTGNSNNVGNQGAAWLQQHQGHPPKLLSYRNNNRPSGISERFSASRSGNTASLTITGLQPEDEADYYCSAWDSSLSAWVFGGGTKLTVLG
B4: clone GN414 (scFv, V domains shown)
VH: QVQLVQSGAEVKKPGASVKVSCKASGYTFSTYGITWVRQAPGQGLEWMGRITPNNGVTDYAQKFQGRVTMTRDTSISTAYMELSSLRSDDSAVYYCAREIGSSSWKLLDPWGQGTMVTVSS
VL: QAVLTQPSSVSVSPGQTASITCTGNSNNVGYEGAAWVQQYQGHPPKLLSDRNHNRPSGISERFSASRSGNTASLTITGLQSEDEADYYCSAWDSSLSEWVSGGGTKLTVLG
B5: clone GX247 (scFv, V domains shown)
VH: QVQLVQSGAEVKKPGASVKVSCKASGYTFTSYYMHWVRQAPGQGLEWMGIINPSGGSTSYAQKFQGRVTMTRDTSTSTVYMELSSLRSEDTAVYYCARTRKGSGYSYGYGMDVWGQGTTVTVSS
VL: SYELTQPPSVSVSPGQTASITCSGDKLGNKYVSWYQQKPGQSPVLVIYQDNKRPSGIPERFSGSNSGNTATLTISGTQAMDEAGYYCQTWDSSVVFGGGTKLTVLG
B6: clone GS006 (scFv, V domains shown)
VH: EVQLLESGGGLVQPGGSLRLSCAASGFTFSGYSMSWVRQAPGKGLEWVSAISPGGGSKYYADSVRGRFTVSRDNSKNTLYLQMNSLRAEDTAVYYCARYRVQKSAKNVYSSNGMDVWGQGTLVTVSS
VL: QSVLTQPPPASGTPGQRVTISCSGSSSNIGNNAVNWYQQLPGTAPKLLIYYDSNRPSGVPDRFSGSKSGTSASLAISGLRSEDEADYYCGAWDSSLSAYVFGGGTKLTVLG
B7: clone GS002 (scFv, V domains shown)
VH: EVQLLESGGGLVQPGGSLRLSCAASGFTFSGYSMSWVRQAPGKGLEWVSSISPGGSSTYYADSVKGRFTISRDNSKNTLYLQMSSLRAEDTAVYYCARYRVWHMTTGDYYSNAMDVWGQGTLVTVSS
VL: QSVLTQPPSASGTPGQRVTISCTGSSSNIGSNAVSWYQQLPGTAPKLLIYDDNKRPSGVLDRFSGSKSGTSASLAISGLRSEDEADYYCGTWDDSLSGYVFGGGTKLTVLG
B8: clone GS010 (scFv, V domains shown)
VH: EVQLLESGGGLVQPGGSLRLSCAASGFTFSNYSMSWVRQAPGKGLEWVSVISPSSGSIYYADSVKGRFTISRDNSKNTLYLQMNSLRAEDTAVYYCARYRVRQLKHTRSYADAMDVWGQGTLVTVSS
VL: QSVLTQPPSASGAPGQRVTISCSGSSSNIGSNAVSWYQQLPGTAPKLLIYANSHRPSGVPDRFSGSKSGTSASLAISGLRSEDETDYYCASWDSSLSGYVFGGGTKLTVLG
B9: clone GS015 (scFv, V domains shown)
VH: EVQLLESGGGLAQPGGSLRLSCAASGFTFSDYSMSWVRQAPGKGLEWVSAISPDGGSKYYADSVKGRFTISRDNSKNTLYLQMNSLRAEDTAVYYCARFRVIKLRAGWYSANGMDVWGQGTLVTVSS
VL: B6 VL with P9S, A33D, N35S, D52N, N54K, S94D, S97N, A98G
B10: clone GS014 (scFv, V domains shown)
VH: EVQLLESGGGLVQPGGSLRLSCAASGFTFSNYAMSWVRQAPGKGLEWVSVISPNSGSNTYYADSVKGRFTISRDNSKNTLYLQMNSLRAEDTAVYYCARPRILRRRVDHSYSYAMDVWGQGTLVTVSS
VL: B7 VL with S31N, A33Y, D51S, D52N, N53S, K54H, L60P, D94Y, F101L
B11: clone GS004 (scFv, V domains shown)
VH: EVQLLESGGGLVQPGGSLRLSCAVSGFTFSNYSMSWVRQAPGKGLEWVSAISPGSSNKYYADSVKGRFTISRDNSKNTLYLQMNSLRAEDTAVYYCARYRVWAHSASSSYSNAMDVWGQGTLVTVSS
VL: B6 VL with P9S, A33D, N35S, Y51S, N54Q, A91S, S94D, S97N, A98G

One test concerns the target GPC3 on the surface of hepatic cancer cell lines (SK-Hep1-GPC3 transfectant, HepG2, Huh7, Hep3B, SNU398) (human) (UniProt P51654). Briefly: FACS, SK-Hep1-GPC3 #9 cells, 1 ug antibody; lower left panel.
With B1, the Mean, FL2-H amounted to 4.17.
As for B2, the Mean, FL2-H is 3.71.
Still for that read-out and setting: the value for B3 was 3.99; that for B4 was 3.75.
Same read-out and setting: next, B5: 6.07.

A further test has the same target. Nature of the test: FACS, SK-Hep1-GPC3 #9 cells, 1 ug antibody; upper right panel. Background: A flow cytometer gives signals particle by particle.
In turn, B6 had a Mean, FL2-H of 3.65.
Same read-out and setting: the value for B7 was 4.17.
Regarding B8, the Mean, FL2-H is 4.53.
Molecule B9 came in with a Mean, FL2-H of 5.34.
On the same count and under the same terms, the value for B10 was 4.39; that for B11 was 4.11.

Another test shares this target. Nature of the test: FACS, HepG2 cells, 1 ug antibody; lower left panel (Human naive library).
In the case of B1, the Mean, FL2-H came out at 4.24.
On the same count and under the same terms, the value for B2 was 6.06.
As for B3, the Mean, FL2-H is 5.39.
Take B4: the Mean, FL2-H was 6.9.
B5: the Mean, FL2-H worked out at 5.53.

The target is the same in a further test. Nature of the test: FACS, HepG2 cells, 1 ug antibody; upper right panel (Synthetic library).
In turn, B6 gave a Mean, FL2-H of 3.41.
Same read-out and setting: next, B7: 4.71; B8: 4.72.
B9 had a Mean, FL2-H of 3.64.
The same measure, in the same setting: next, B10: 5.66; B11: 4.38.
